Assay results published in article doi:10.1101/2023.04.30.538836.

Target: PlsB from Themomonas haemolytica (Themomonas haemolytica)
Assay: cryo-EM structure

In the case of “PlsB from Themomonas haemolytica (enzyme)”, the stoichiometry N is reported as 2.
